Results: patent US20260034194A1, “PHARMACEUTICAL COMPOSITIONS AND METHODS OF TREATING PSP” (priority 2022, published 2026)
Entries after “also recorded” stand apart in the source; their conditions may differ. Read-outs that look alike come from different tables or passages of the source.

What was measured:
[1] = assay type: binding
[2] = test system: TTX poisoning in female CD-1 mice; conditions: mouse, in vivo, ip
[3] = read-out: RcSxph affinity for STX; prior radioligand assay; cited from earlier work
[4] = Thermofluor (TF) assay of STX binding; conditions: 1.1 μM Sxph, 0-20 μM STX; ΔTm at 20 μM toxin
female CD-1 mice = conditions: 60 nmoles/Kg RcSxph, IP, observed up to one hour
[5] = assay type: binding; conditions: ITC, STX, 25° C.
Method: . […] In almost all mutants, binding affinity loss correlated with a reduction in enthalpy, consistent with a loss of interactions (Table S2). […]. […] Together, these three assays (FIGS. 1E and G) provide a robust and versatile suite of options for characterizing STX:Sxph interactions.
ITC measurements were performed at 25° C. using a MicroCal PEAQ-ITC calorimeter (Malvern Panalytical). […]. This STX stock was diluted with the SEC buffer to prepare 100 μM or 300 μM STX solutions having a final buffer composition of 135 mM NaCl, 9 mM HEPES, pH 7.4. […]. The calorimetric experiment settings were: reference power, 5 μcal/s; spacing between injections, 150 s; stir speed 750 rpm; and feedback mode, high. Data were analyzed using MicroCal PEAQ-ITC Analysis Software (Malvern Panalytical) using a single binding site model. The heat of dilution from titrations of 100 μM STX in 135 mM NaCl, 9 mM HEPES, pH 7.4 into 135 mM NaCl, 9 mM HEPES, pH 7.4 was subtracted from each experiment to correct the baseline.

[6] = test system: STX poisoning in female CD-1 mice; assay type: in vivo; conditions: RcSxph:STX 2:1 molar ratio, 30 nmoles/Kg STX, 60 nmoles/Kg RcSxph, IP, observed up to one hour

B1: RcSxph: Rana (Lithobates) catesbeianus (American bullfrog) saxiphilin, SEQ ID NO: 1 (protein)
chain: MAPTFQTALFFTIISLSFAAPNAKQVRWCAISDLEQKKCNDLVGSCNVPDITLVCVLRSSTEDCMTAIKDGQADAMFLDSGEVYEASKDPYNLKPIIAEPYSSNRDLQKCLKERQQALAKKMIGHYIPQCDEKGNYQPQQCHGSTGHCWCVNAMGEKISGTNTPPGQTRATCERHELPKCLKERQVALGGDEKVLGRFVPQCDEKGNYEPQQFHGSTGYSWCVNAIGEEIAGTKTPPGKIPATCQKHDLVTTCHYAVAMVKKSSAFQFNQLKGKRSCHSGVSKTDGWKALVTVLVEKKLLSWDGPAKESIQRAMSKFFSVSCIPGATQTNLCKQCKGEEGKNCKNSHDEPYYGNYGAFRCLKEDMGDVAFLRSTALSDEHSEVYELLCPDNTRKPLNKYKECNLGTVPAGTVVTRKISDKTEDINNFLMEAQKRQCKLFSSAHGKDLMFDDSTLQLALLSSEVDAFLYLGVKLFHAMKALTGDAHLPSKNKVRWCTINKLEKMKCDDWSAVSGGAIACTEASCPKGCVKQILKGEADAVKLEVQYMYEALMCGLLPAVEEYHNKDDFGPCKTPGSPYTDFGTLRAVALVKKSNKDINWNNIKGKKSCHTGVGDIAGWVIPVSLIRRQNDNSDIDSFFGESCAPGSDTKSNLCKLCIGDPKNSAANTKCSLSDKEAYYGNQGAFRCLVEKGDVAFVPHTVVFENTDGKNPAVWAKNLKSEDFELLCLDGSRAPVSNYKSCKLSGIPPPAIVTREESISDVVRIVANQQSLYGRKGFEKDMFQLFSSNKGNNLLFNDNTQCLITFDRQPKDIMEDYFGKPYYTTVYGASRSAMSSELISACTIKHC
[1]
  ΔTm (TTX-induced change of melting temperature): 0.3 °C
[2]
  mitigation of TTX poisoning in mice: unable to mitigate TTX poisoning
[3]
  Kd: ~1 nM
[4]
  ΔTm (STX-induced change of melting temperature): 3.6 °C
Female CD-1 mice
  adverse effects of RcSxph alone: no detectable adverse effects
[5]
  Kd: 1.2 ± 0.8 nM
  ΔH: -16.1 ± 0.2 kcal/mol
  ΔS (cal mol^−1 K^−1): −12.7 ± 0.9 cal mol^−1 K^−1
[5]; listed as RcSxph WT
  ΔH: -16.1 ± 0.2 kcal/mol
[6]
  protection of mice from STX poisoning: protects mice from STX poisoning; also recorded: sufficient to protect mice completely from STX intoxication
